From publication PMC3921932

Target: recombinant manganese superoxide dismutase (MnSOD) from Lactococcus lactis M4 (Lactococcus lactis M4) (UniProt P0A4J2)
Assay: SEC; Superose 12 HR 16/70 packed column, 20 mM phosphate buffer, 0.15 M NaCl, pH 7.0, 0.75 mL/min; calibrated with aprotinin, cytochrome c, carbonic anhydrase and BSA; estimated mass 63 kDa against 55.4 kDa theoretical for a dimer

stoichiometry N: 2
Substance: recombinant manganese superoxide dismutase (MnSOD) from Lactococcus lactis M4 (from UniProt P0A4J2 1-206) (enzyme)
